In PMC11194070, “Despite the odds: formation of the SARS-CoV-2 methylation complex” (Nucleic Acids Research, 2024) one finds Kd data, which are given here for one molecule.

This assay addresses T1, nsp10/16 complex (heterodimer of SARS-CoV-2 nsp10 and nsp16) (SARS-CoV-2, UniProt P0DTD1).
T1 construct: also called nsp10/nsp16; nsp10/16 heterodimer
Nature of the assay: MST. As to conditions: both partners purified.

B1: nsp14ExoN, nsp14 without the methyltransferase domain but retaining the exonuclease activity (domain or fragment)
chain: AENVTGLFKDCSKVITGLHPTQAPTHLSVDTKFKTEGLCVDIPGIPKDMTYRRLISMMGFKMNYQVNGYPNMFITREEAIRHVRAWIGFDVEGCHATREAVGTNLPLQLGFSTGVNLVAVPTGYVDTPNNTDFSRVSAKPPPGDQFKHLIPLMYKGLPWNVVRIKIVQMLSDTLKNLSDRVVFVLWAHGFELTSMKYFVKIGPERTCCLCDRRATCFSTASDTYACWHHSIGFDYVYNPFMIDVQQWGFTGNLQSNHDLYCQVHGNAHVASCDAIMTRCLAVHECFVKRVDWTIE
What is called Kd is the equilibrium constant for the complex coming apart. Take B1: binding was characterised by a dissociation constant (Kd) of 110 ± 130 nM.
